Laboratory results as given in PMC12098869, “An mRNA-display derived cyclic peptide scaffold reveals the substrate binding interactions of an N-terminal cysteine oxidase” (Nature Communications, 2025).
Positions count from the first letter of the chain named. One block for each binder: values may come before it.

Tests used:
Details in all cases: both partners purified
[1] = target: T1, ADO-F101A, biotinylated (pQE80L-Navi-ADO) (human, UniProt Q96SZ5 1-270, F101A, biotin on the Avi tag); experiment: SPR; multi-cycle, equilibrium steady state affinity 1:1 binding model; biotinylated ADO or variant immobilised on a Biotin CAP chip (~2500-3000 RU), peptide injected; 4 °C; 20 mM HEPES pH 7.5, 500 mM NaCl, 10 mM DTT, 0.1% (v/v) tween-20; 50 μL/minute
T1 construct: Tag as in Dm1; source: E. coli Rosetta2(DE3), purified (Ni-NTA, SEC); not shown: Avi tag, N-terminal, kept; His6, N-terminal, kept
T1 sequence (looked up): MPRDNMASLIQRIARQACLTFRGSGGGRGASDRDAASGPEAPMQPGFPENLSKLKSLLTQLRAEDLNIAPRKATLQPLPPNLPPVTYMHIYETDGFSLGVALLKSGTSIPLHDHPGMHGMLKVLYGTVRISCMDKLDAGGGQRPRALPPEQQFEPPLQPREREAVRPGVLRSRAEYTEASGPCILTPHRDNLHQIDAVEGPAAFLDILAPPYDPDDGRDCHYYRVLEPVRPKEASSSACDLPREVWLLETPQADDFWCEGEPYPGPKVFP
Outline: (§1)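 Biotinylated full-length human ADO (wild type or engineered forms) was made in E. coli with a His tag, then purified by nickel affinity and gel filtration. It was captured on a Biotin CAP chip at about 2500–3000 RU in a Biacore T200, and peptides were flowed over it. The run was at 4 °C in HEPES pH 7.5 buffer with 500 mM NaCl, DTT and tween-20, at 50 μL/minute. Kd came from a 1:1 steady-state fit of multi-cycle equilibrium responses.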

[2] = target: T2, ADO-D206E, biotinylated (pQE80L-Navi-ADO) (human, UniProt Q96SZ5 1-270, D206E, biotin on the Avi tag); experiment: as above
T2 construct: Tag as in Dm1; source: E. coli Rosetta2(DE3), purified (Ni-NTA, SEC); not shown: Avi tag, N-terminal, kept; His6, N-terminal, kept
T2 sequence (looked up): T1 sequence (looked up) with A101F, D206E
Outline: as §1

[3] = target: T3, ADO-C220A, biotinylated (pQE80L-Navi-ADO) (human, UniProt Q96SZ5 1-270, C220A, biotin on the Avi tag); experiment: as above
T3 construct: Tag as in Dm1; source: E. coli Rosetta2(DE3), purified (Ni-NTA, SEC); not shown: Avi tag, N-terminal, kept; His6, N-terminal, kept
T3 sequence (looked up): T1 sequence (looked up) with A101F, C220A
Outline: as §1

[4] = target: T4, ADO-F256A, biotinylated (pQE80L-Navi-ADO) (human, UniProt Q96SZ5 1-270, F256A, biotin on the Avi tag); experiment: as above
T4 construct: Tag as in Dm1; source: E. coli Rosetta2(DE3), purified (Ni-NTA, SEC); not shown: Avi tag, N-terminal, kept; His6, N-terminal, kept
T4 sequence (looked up): T1 sequence (looked up) with A101F, F256A
Outline: as §1

[5] = target: T5, ADO-Y212A, biotinylated (pQE80L-Navi-ADO) (human, UniProt Q96SZ5 1-270, Y212A, biotin on the Avi tag); experiment: as above
T5 construct: Tag as in Dm1; source: E. coli Rosetta2(DE3), purified (Ni-NTA, SEC); not shown: Avi tag, N-terminal, kept; His6, N-terminal, kept
T5 sequence (looked up): T1 sequence (looked up) with A101F, Y212A
Outline: as §1

[6] = target: T2, ADO-D206E, biotinylated …; experiment: SPR; single-cycle kinetics (SCK), 1:1 binding model; biotinylated ADO or variant immobilised on a Biotin CAP chip, peptide injected at 25.6, 64, 160, 400, 1000 nM; 4 °C; 20 mM HEPES pH 7.5, 500 mM NaCl, 10 mM DTT, 0.1% (v/v) tween-20; 50 μL/minute

- Kd [1]: 37 µM
- Kd [2]: 1300 nM
- Kd [3]: 1300 nM
- Kd [4]: 870 nM
- Kd [5]: 29 µM
B1: IL32_(2-15), synthetic peptide corresponding to the methionine excised N-terminus of IL32, residues 2-15 (peptide, UniProt P24001 2-15, looked up)
peptide: CFPKVLSDDMKKLK
notes: Interleukin 32 (IL32), residues 2-15, N-terminal Cys; also called IL32 peptide; source: synthetic peptide

- Kd [6]: 1100 nM
- Kd [1]: 47 µM
- Kd [3]: 1100 nM
- Kd [5]: 72 µM
B2: RGS5_(2-15), synthetic peptide corresponding to the methionine excised N-terminus of RGS5, residues 2 to 15 (peptide, UniProt O15539 2-15, looked up)
peptide: CKGLAALPHSCLER
notes: Regulator of G-protein signalling 5 (RGS5), residues 2 to 15, N-terminal Cys; also called RGS5 peptide; source: synthetic peptide
